From US20080050370A1 (Biogen, published 2008) come the findings set out here.

As a reminder, the EC50 is the concentration needed to bring the measured effect to its halfway point. Lower therefore signals higher potency in that assay. As usually defined, the Kd is the concentration at which binding is half-saturated. A low value points to higher affinity.

In experiment [1] the target is T1, LTβR-Ig (UniProt P36941 31-227, limits assumed).
T1 construct: extracellular domain; also called LTβR Ig receptor; recombinantly produced LTβR receptor; not shown: human Fc region
Put plainly: bispecific sandwich ELISA: LTβR-Ig coated on the plate, purified antibody titrated, then TRAIL-R2 Fc 6X-His, detection with anti-His HRP conjugate; signal needs binding to both receptors.

The target in experiment [2] is T2, sLTβR (UniProt P36941 31-227, limits assumed).
T2 construct: Used in solution in ITC and as the analyte in SPR; also called soluble lymphotoxin beta receptor; antigen
The experiment is described as follows: SPR (Biacore 3000), scFv captured on anti-PENTA-His, sLTβR 1-200 nM as analyte, 1:1 Langmuir fit. In general terms: SPR reads the build-up and loss of mass on a sensor chip optically.
Experimental: All experiments were performed in HBS-EP buffer, pH 7.4. […] 0.1 μM solutions of test scFvs were injected over the chip at a flow rate of 5 μl/min for 10 minutes and captured onto the surface via the immobilized PENTA-His antibody. To investigate binding between sLTβR and captured scFv, a concentration series of sLTβR (1, 2, 5, 10, 25, 50, 100, and 200 nM) was double injected at a flow rate of 30 μl/min onto the scFv-coated surface. Background was subtracted from test sample sensorgrams using sensorgram data from a flow cell containing buffer only and sensorgram data from the PENTA-His surface where scFv was injected followed by an injection of buffer instead of sLTβR. The curves were analyzed using the BiaEval 3.0 manufacturer's software. KD values were calculated by fitting kinetic association and dissociation curves to a 1:1 Langmuir binding model. Chip surfaces were regenerated by two consecutive 10 μL injections of 0.1 M glycine, pH 3.0.

The target of experiment [3] is T1, LTβR-Ig. Put plainly: thermal challenge assay; T50 = temperature at which 50% of the molecules keep binding to plate-coated LTβR-Ig (DELFIA); unit taken from the x axis.
Experimental: An aliquot of the supernatant was reserved for the reference DELFIA. […] For screens requiring multiple challenge temperatures (or for temperatures greater than 75° C.) the supernatants were transferred to 96-well PCR plates (Applied Biosystems, Foster City, Calif., Cat. # N801-560) and incubated for 90 minutes at the desired temperature.
After thermal challenge, the samples were centrifuged at 2,000 RPM to remove aggregated material. Soluble BHA10 scFv samples remaining in the treated, cleared supernatant were assayed for binding to cognate LTβR Ig antigen by DELFIA assay. […] Plates were coated overnight at 4° C., and blocked with DELFIA assay buffer (DAB, 10 mM Tris HCl, 150 mM NaCl, 20 μM EDTA, 0.5% BSA, 0.02% Tween 20, 0.01% NaN₃, pH 7.4) for one hour with shaking at room temperature. Plates were washed 3 times with DAB without BSA (Wash buffer), and test samples diluted in DAB were added to the plates in a final volume of 100 μl. The plates were incubated for one hour with shaking at room temperature, and then washed 3 times with Wash buffer to remove unbound and functionally inactivated scFv molecules. Bound BHA10 scFv was detected by addition of 100 μl per well of DAB containing 40 ng/ml of Eu-labeled anti-His₆ antibody (Perkin Elmer, Boston, Mass., Cat. # AD0109) and incubated at room temperature with shaking for one hour.
For experiment [4], the target named is T2, sLTβR. Put plainly: SPR (Biacore 3000).
Experiment [5] deals with T1, LTβR-Ig. The experiment is described as follows: thermal challenge assay, remaining binding to plate-coated LTβR-Ig read by DELFIA; unit taken from the x axis.

T1 sequence (P36941 31-227 limits assumed): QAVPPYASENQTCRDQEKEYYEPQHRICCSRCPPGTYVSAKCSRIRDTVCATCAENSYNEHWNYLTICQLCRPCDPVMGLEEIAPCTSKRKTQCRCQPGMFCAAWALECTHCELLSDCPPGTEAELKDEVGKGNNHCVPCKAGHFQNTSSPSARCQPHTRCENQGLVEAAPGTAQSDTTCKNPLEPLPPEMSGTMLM
T2 sequence (P36941 31-227 limits assumed): as above

B1: BHA10 scFv VH44:VL100 NH-Hercules bispecific antibody (bispecific antibody)
heavy: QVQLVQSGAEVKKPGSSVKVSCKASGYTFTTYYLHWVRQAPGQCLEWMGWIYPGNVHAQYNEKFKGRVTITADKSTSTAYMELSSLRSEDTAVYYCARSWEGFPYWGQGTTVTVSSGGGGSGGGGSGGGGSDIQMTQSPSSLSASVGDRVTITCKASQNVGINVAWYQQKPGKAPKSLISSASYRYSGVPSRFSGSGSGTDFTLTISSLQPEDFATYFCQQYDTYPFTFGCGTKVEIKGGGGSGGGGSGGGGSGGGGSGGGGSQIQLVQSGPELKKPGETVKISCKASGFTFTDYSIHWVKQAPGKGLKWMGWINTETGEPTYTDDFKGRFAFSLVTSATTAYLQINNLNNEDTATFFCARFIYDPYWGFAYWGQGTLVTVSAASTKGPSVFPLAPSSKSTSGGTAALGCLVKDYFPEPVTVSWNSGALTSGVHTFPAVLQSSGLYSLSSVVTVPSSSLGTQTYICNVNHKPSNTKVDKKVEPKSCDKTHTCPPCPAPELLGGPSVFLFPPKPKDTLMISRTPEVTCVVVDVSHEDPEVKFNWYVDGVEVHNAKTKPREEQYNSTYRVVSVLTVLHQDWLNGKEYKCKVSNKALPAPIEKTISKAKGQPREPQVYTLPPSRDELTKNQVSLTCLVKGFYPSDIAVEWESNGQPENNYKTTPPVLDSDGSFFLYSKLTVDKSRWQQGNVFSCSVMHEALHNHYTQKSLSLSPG
light: QLVLTQSSSVSFSLGASAKLTCTLSSQHSTYTIEWYQQQPLKPPKYVMELKKDGSHSTGDGIPDRFSGSSSGADRYLSISNIQPEDEAIYICGVGDTIKEQFVYVFGGGTKVEIKRTVAAPSVFIFPPSDEQLKSGTASVVCLLNNFYPREAKVQWKVDNALQSGNSQESVTEQDSKDSTYSLSSTLTLSKADYEKHKVYACEVTHQGLSSPVTKSFNRGEC
notes: BHA10 scFv (anti-LTβR) joined by a (Gly4Ser)5 linker to the N-terminus of the chimeric 14A2 IgG1 (anti-TRAIL R2) heavy chain; also called N-Hercules with VH44:VL100 BHA10 scFv; N-"Hercules" Cys
B1 had an EC50 with LTβR-Ig [1] of 0.041 µg/mL.

B2: BHA10 scFv VH44:VL100/(Gly4Ser)4 NH-Hercules bispecific antibody (bispecific antibody, human IgG1, kappa)
heavy: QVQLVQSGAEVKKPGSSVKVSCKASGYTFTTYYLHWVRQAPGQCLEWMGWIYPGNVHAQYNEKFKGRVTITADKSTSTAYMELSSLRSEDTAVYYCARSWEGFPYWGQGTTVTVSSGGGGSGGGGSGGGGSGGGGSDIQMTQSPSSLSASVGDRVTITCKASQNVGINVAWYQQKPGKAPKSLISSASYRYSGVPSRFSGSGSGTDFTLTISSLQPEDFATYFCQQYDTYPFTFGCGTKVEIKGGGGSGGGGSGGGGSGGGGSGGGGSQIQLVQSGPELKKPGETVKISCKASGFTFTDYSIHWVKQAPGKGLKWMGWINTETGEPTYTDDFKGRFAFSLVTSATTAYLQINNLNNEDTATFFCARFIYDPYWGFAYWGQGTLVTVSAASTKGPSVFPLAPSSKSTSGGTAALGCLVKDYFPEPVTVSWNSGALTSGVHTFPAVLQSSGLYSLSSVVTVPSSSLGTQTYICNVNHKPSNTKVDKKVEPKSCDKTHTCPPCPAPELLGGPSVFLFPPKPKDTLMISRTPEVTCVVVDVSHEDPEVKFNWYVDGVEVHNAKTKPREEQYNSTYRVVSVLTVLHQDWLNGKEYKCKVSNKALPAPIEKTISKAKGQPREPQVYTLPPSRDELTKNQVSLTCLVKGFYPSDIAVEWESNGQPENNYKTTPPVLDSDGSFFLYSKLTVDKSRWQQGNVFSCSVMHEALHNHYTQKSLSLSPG
light: QLVLTQSSSVSFSLGASAKLTCTLSSQHSTYTIEWYQQQPLKPPKYVMELKKDGSHSTGDGIPDRFSGSSSGADRYLSISNIQPEDEAIYICGVGDTIKEQFVYVFGGGTKVEIKRTVAAPSVFIFPPSDEQLKSGTASVVCLLNNFYPREAKVQWKVDNALQSGNSQESVTEQDSKDSTYSLSSTLTLSKADYEKHKVYACEVTHQGLSSPVTKSFNRGEC
notes: scFv at the N-terminus of the chimeric 14A2 IgG1 heavy chain; For signal peptides see m17; also called XWU028; pXWU028
Turning to B2, in the experiment with LTβR-Ig [1], the EC50 is 0.055 µg/mL. This EC50 and that of the molecule before are within 1.5-fold of each other.

B3: BHA10 scFv VH44:VL100/(Gly4Ser)4 C-Hercules bispecific antibody (bispecific antibody, human IgG1, kappa)
heavy: not shown
light: QLVLTQSSSVSFSLGASAKLTCTLSSQHSTYTIEWYQQQPLKPPKYVMELKKDGSHSTGDGIPDRFSGSSSGADRYLSISNIQPEDEAIYICGVGDTIKEQFVYVFGGGTKVEIKRTVAAPSVFIFPPSDEQLKSGTASVVCLLNNFYPREAKVQWKVDNALQSGNSQESVTEQDSKDSTYSLSSTLTLSKADYEKHKVYACEVTHQGLSSPVTKSFNRGEC
notes: scFv at the C-terminus of the chimeric 14A2 IgG1 heavy chain; For signal peptides see m17; also called XWU036; pXWU036
Molecule B3 displayed an EC50 with LTβR-Ig [1] of 0.086 µg/mL.

B4: BHA10 scFv VH44:VL100 C-Hercules bispecific antibody (bispecific antibody, human IgG1, kappa)
heavy: not shown
light: QLVLTQSSSVSFSLGASAKLTCTLSSQHSTYTIEWYQQQPLKPPKYVMELKKDGSHSTGDGIPDRFSGSSSGADRYLSISNIQPEDEAIYICGVGDTIKEQFVYVFGGGTKVEIKRTVAAPSVFIFPPSDEQLKSGTASVVCLLNNFYPREAKVQWKVDNALQSGNSQESVTEQDSKDSTYSLSSTLTLSKADYEKHKVYACEVTHQGLSSPVTKSFNRGEC
notes: BHA10 scFv joined by a Ser(Gly4Ser)3 linker to the C-terminus of the chimeric 14A2 IgG1 heavy chain; For signal peptides see m17; also called C-Hercules with VH44:VL100 BHA10 scFv; C-"Hercules" Cys
The molecule B4 yielded an EC50 with LTβR-Ig [1] of 0.087 µg/mL.

B5: conventional BHA10 scFv, VH-(Gly4Ser)3-VL (scFv)
scFv: QVQLVQSGAEVKKPGSSVKVSCKASGYTFTTYYLHWVRQAPGQGLEWMGWIYPGNVHAQYNEKFKGRVTITADKSTSTAYMELSSLRSEDTAVYYCARSWEGFPYWGQGTTVTVSSGGGGSGGGGSGGGGSDIQMTQSPSSLSASVGDRVTITCKASQNVGINVAWYQQKPGKAPKSLISSASYRYSGVPSRFSGSGSGTDFTLTISSLQPEDFATYFCQQYDTYPFTFGQGTKVEIK
notes: also called Wild-type, (G4S)*3 linker; WT
As for B5, the Kd with sLTβR [2] was 3.7 nM; with sLTβR [4] it was 2.7 nM. The molecule also returned a T50 with LTβR-Ig [3] of 49 °C.

B6: BHA10 VH44/VL100 scFv (scFv)
scFv, VH-(Gly4Ser)3-VL: QVQLVQSGAEVKKPGSSVKVSCKASGYTFTTYYLHWVRQAPGQCLEWMGWIYPGNVHAQYNEKFKGRVTITADKSTSTAYMELSSLRSEDTAVYYCARSWEGFPYWGQGTTVTVSSGGGGSGGGGSGGGGSDIQMTQSPSSLSASVGDRVTITCKASQNVGINVAWYQQKPGKAPKSLISSASYRYSGVPSRFSGSGSGTDFTLTISSLQPEDFATYFCQQYDTYPFTFGCGTKVEIK
modifications: disulfide bond between VH44 Cys and VL100 Cys (Kabat)
notes: Expressed in E. coli; also called IEH006 (GS3 + SS); pIEH006
On to B6, for which, in the experiment with LTβR-Ig [3], the T50 came out at 59 °C. Also, the “midpoint temperature of the thermal challenge curve (T50)” value (from here on “midpoint temperature”) in the experiment with LTβR-Ig [5] was determined as 61.5 °C.

B7: BHA10 scFv VL-S46L, (G4S)4 linker (scFv)
scFv: QVQLVQSGAEVKKPGSSVKVSCKASGYTFTTYYLHWVRQAPGQGLEWMGWIYPGNVHAQYNEKFKGRVTITADKSTSTAYMELSSLRSEDTAVYYCARSWEGFPYWGQGTTVTVSSGGGGSGGGGSGGGGSGGGGSDIQMTQSPSSLSASVGDRVTITCKASQNVGINVAWYQQKPGKAPKLLISSASYRYSGVPSRFSGSGSGTDFTLTISSLQPEDFATYFCQQYDTYPFTFGQGTKVEIKDDDDKSFLEQKLISEEDLNSAVDHHHHHH
notes: also called 072 VL-S46L; pIEH029
Take B7: the “midpoint temperature” value with LTβR-Ig [5] was determined as 60.3 °C. This molecule also registered a Kd in the experiment with sLTβR [4] of 4 nM.

B8: IEH031 (GS4 + SS + VL S46L) (scFv)
scFv: QVQLVQSGAEVKKPGSSVKVSCKASGYTFTTYYLHWVRQAPGQCLEWMGWIYPGNVHAQYNEKFKGRVTITADKSTSTAYMELSSLRSEDTAVYYCARSWEGFPYWGQGTTVTVSSGGGGSGGGGSGGGGSGGGGSDIQMTQSPSSLSASVGDRVTITCKASQNVGINVAWYQQKPGKAPKLLISSASYRYSGVPSRFSGSGSGTDFTLTISSLQPEDFATYFCQQYDTYPFTFGCGTKVEIKDDDDKSFLEQKLISEEDLNSAVDHHHHHH
modifications: chain 1: engineered disulfide bond between Cys at pos 44 (VH Kabat 44) and Cys at pos 236 (VL Kabat 100)
notes: also called pIEH031; BHA10 scFv VH44-VL100 disulfide, (Gly4Ser)4 linker, VL S46L
As for B8, the “midpoint temperature” value with LTβR-Ig [5] was 72.3 °C.

B9: BHA10 scFv VH-V55G, (G4S)4 linker (scFv)
scFv: QVQLVQSGAEVKKPGSSVKVSCKASGYTFTTYYLHWVRQAPGQGLEWMGWIYPGNGHAQYNEKFKGRVTITADKSTSTAYMELSSLRSEDTAVYYCARSWEGFPYWGQGTTVTVSSGGGGSGGGGSGGGGSGGGGSDIQMTQSPSSLSASVGDRVTITCKASQNVGINVAWYQQKPGKAPKSLISSASYRYSGVPSRFSGSGSGTDFTLTISSLQPEDFATYFCQQYDTYPFTFGQGTKVEIKDDDDKSFLEQKLISEEDLNSAVDHHHHHH
notes: also called 079 VH-V55G; pIEH070
Turning to B9, in the experiment with sLTβR [4], the Kd was found to be 2.2 nM.
